Laboratory results reported in a protein production outcome set (Wang et al. 2014).

Assay: label from the status in PepcDB records
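Further: failed if final PepcDB status was selected cloned or expressed and not failed if soluble or beyond.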

Row | Sequence | protein production
1 | MTVELLNEPLSRYPAFDTADPEELRQALSSVYGAKLVEGPIAADFHARSNFVQLDDIALAFGVGTGSIAVEFPEGECARLQIALSGQFTTRSGGTSTAINARQAGIISPGRNARTEYGQNYSFTLLRVSTSALERKLTTLLGCKPKASLEFEPAANNEAPQVVNLRRMLCFLANQLNCSPLPPVVLAELQEAITLLFLSAFRHNYSRQLERESHGIAPKHVRQVEEYIEANWMRPITIEKLTALTGISSRGIFKAFQRSRGYSPMAFAKRVRLQHAHNLLSDGATPTTVTAAALSCGFSNLGHFARDYRDMFGEKPSETLQRARP | failed
2 | MTVGIIGAGNIGGAFATALGKAGIEAVIANSRGPESLTALVSKLGSTIRAGSVPEAAAQAIVLVAVPWSKIPGALAGLNFGDRIVIDANNSIEAPLYRPADLGGRTSTDIFTALVPGARVVKAFNHLTPKQLSGDPHSEGGRRVLFYSGDDMRAKAEVGAIIDRIGFFGIDLGGLPVGSQLLQFPGGPLPALNLVKFD | failed
3 | MTVKHLAIAPEGKKSLRLSWTNVAFFTTIHALALLAPWFFSWSALGLLLFLHWLFGSIGICLGYHRLLSHKSFQVPKWLEYAIATIGALAMQGGPIFWIGGHRQHHAHTEDVYLDPYSSQRGFWWSHMLWILYPRSEFFDYEIYQKYAPDLARQPFYRWLDRYFLLLQIPFGLMLYAIGGWSFVIYGVVLRAVLLWHSTWFVNSATHMWGYRTFNADDNARNLWWVSIVTYGEGWHNNHHTYPNVAKAGFQWWEVDVTWWSIKLLQTLGLAKKVVLPPSQRMNQG | failed
4 | MTVLDKVNDPTDIKALTPLELEELATNVRDAILNRVSQYPGGHLGPNLGVVEMTIALHKVFNSPVDKLIWDVSHQSYPHKVLTGRKEFFTDKDKFSGTTGYTDPEENEHDFIRVGHTSTSIATAMGYALARDVQGKKENIVAIIGDGALSGGLAFEGLDGAGTLNGNLIIIVNDNEMAITENHGGIYQHLADLRASKGTSANNLFKSFGLDYRYLEEGNDIQSLIVLFESVKDINRPIVLHIHIEKGHGYKPAVENKEGMHQVFAPFDIATGQPVNSSTNIVRSYNNVFLDFMEEKLAKGDNLIAINAAIPMFFGLSQFAKNHPKNYVDGGIAEQYTVTLGGAIAAAGTRAIIFQNATFLQRAYDQLNHDLALNKEPAIVIISNSQIGGTNDTHQGSFVYSQTSNIPNVIDLAATSEEDLFAMLNWAYNQHEHPVFIHLPEHTLENRPTKITDFSKPQYEVVKSGEKVAILGLGAMLEKAENVAEELEKSGFNPTVVNPFFANLLDVAALDKLSETHGLFVTIEDGTKDGGFGQKVATYLASKGIKTLVYGADTEFIDAVPKEELYNRYHIRPELMATDIIEATKESKGPNFFKKIFSKLEHHHHHH | not failed
5 | MTVLIIGMGNIGKKLVELGNFEKIYAYDRISKDIPGVVRLDEFQVPSDVSTVVECASPEAVKEYSLQILKNPVNYIIISTSAFADEVFRERFFSELKNSPARVFFPSGAIGGLDVLSSIKDFVKNVRIETIKPPKSLGLDLKGKTVVFEGSVEEASKLFPRNINVASTIGLIVGFEKVKVTIVADPAMDHNIHIVRISSAIGNYEFKIENIPSPENPKTSMLTVYSILRTLRNLESKIIFG | not failed
6 | MTVPEEAQTLIGKHYRAPDHFLVGREKIREFAVAVKDDHPTHYSEPDAAAAGYPALVAPLTFLAIAGRRVQLEIFTKFNIPINIARVFHRDQKFRFHRPILANDKLYFDTYLDSVIESHGTVLAEIRSEVTDAEGKPVVTSVVTMLGEAAHHEADADATVAA | failed
7 | MTVPHPESVGEPGIAVRAPARRRSAWHGQAPVVAVVALGGGIGGTARYAAALLWPTQSGGFPWTTFWVNVVGCAVIGVFMVVITDVWPAHRLVRPFFGTGVLGGFTTFSTYAVDIQKLVDAGHPRTALAYLAATLLAALAAVRLAATAARRVLVRRRR | failed
8 | MTVPLYKQIASLIEDSIVDGTLSIDQRVPSTNELAAFHRINPATARNGLTLLVEAGILYKKRGIGMFVSAQAPALIRERRDAAFAATYVAPLIDESIHLGFTRARIHALLDQVAESRGLYK | failed
9 | MTVRTRVTDLLEIEHPILMGGMAWAGTPTLAAAVSEAGGLGIIGSGAMKPDDLRKAISELRQKTDKPFGVNIILVSPWADDLVKVCIEEKVPVVTFGAGNPTKYIRELKENGTKVIPVVASDSLARMVERAGADAVIAEGMESGGHIGEVTTFVLVNKVSRSVNIPVIAAGGIADGRGMAAAFALGAEAVQMGTRFVASVESDVHPVYKEKIVKASIRDTVVTGAKLGHPARVLRTPFARKIQEMEFENPMQAEEMLVGSLRRAVVEGDLERGSFMVGQSAGLIDEIKPVKQIIEDILKEFKETVEKLRGYIEE | not failed
10 | MTVSHHNASTARFYALRLLPGQEVFSQLHAFVQQNQLHAAWIAGCTGSLTDVALRYAGQEATTSLTGTFEVISLNGTLELTGEHLHLAVSDPYGAMLGGHMMPGCTVRTTLELVIGELPALTFSRQPCAISGYDELHISSRLEHHHHHH | not failed
11 | MTVVTFLAFLIPILVLAAIGGVVWWFWMKLRYKTARSNEALIIAGPKLGDPKKETNIFTDNEGRSIKIIRGGGHLLKMHQTATPVDLTSFQLKLTTPRVFTNGGVPIIADAVAMVTVSDTLKGIAIYAEQFLGKEQKEIESEISEVLNANLRAILSKMTVEQINEDREGFNLQVTEVAQKQLDSMGFKITSLGLQDLRDADKENGYLENLGRPRIAEVRKRAEIAESNSDKETRIHKANNDKEAKEQEFQRKIEIAAALKEKDLKDAAIKEETERARAKAEQSYLLEKAKLDKEVQEEELQLLARKKEEELRIKHLERERAVKLEEEEAKVRRAKADADFYETTRKAEADAEKARIEGETKARIKREEGLAEAEVIRKRGEAEAEAKRLLAEAIAKHGEVIIIEKLIEMLPQFAESISKPLSNIESVKIIDTGNGNGVSSYSKSITNTMAQIQEPLKELTGLDVSKLLTDLVNRGNTHTVVRTEAVPTDHHGSPVAASTESEEPVEDQPLENSDSEEKLEHHHHHH | not failed
12 | MTWLIISGLVVGALLGFVMQRTRFCLAGGFRDMYIQKSNKMFYALLIAISVQSIGLLLLTSTRLVEIPESTYPIIGTVIGSFIFGLGIIMAGGCATGTWYRAGEGLIGSWMALIAYAFTSAATKFGLLLPLMNGLNKPTNVNTSMSQTTGIPTWVFVIVLIVITLFFVVKTLRKPKFAVPKLKQKFTGIRHYLFEKKYHPFVAAIAVGLIALLAWPVSESTGRMYGLGITTPSANLVQFFVTGDLKLLDWGVFLVLGIFFGSYIAAKGAKEFKWRLPDKKTIRNSIIGGVLMGFGASVAGGCSIGNGLVETATMSWKGWIALASMILGAWTMSYFVFIRPMKKAQSQTSNTKVSSQTQTS | failed
13 | MTYCLGIVTQAGLIMAADSRTNAGIDYISTYQKLFDFSLPGDRTIVICCSGNLSITQAVLSQLRRDLAGHFDINLHSLPTMYDLARYLGQKVRQLQESDRDWLKQDGIDFYCNFLLGGQIRGGPIELYLVYGQGNCIHATPETPYLQIGETKYGKPILDRTISFDTSLDMAAKCALMSLDSTMRSNLSVGPPLNLARYERDSLVAPMLVQFPAGHEYLVEMRRRWEISLKDAFMRLPDIDWSRQLMRSLSPVSESVPLEHHHHHH | failed
14 | MTYCLGVKLKDGLVAIADTRITSGTDTTTAKKLFVHESAHGSLFLMTSGLRSVRDKAITYFKEVLKDEHVVYNQLYEAVNAFGNQLRRVAEEDRKALYAAGFAFNLHTIVGGQLKNDEEPKMFLLYPEGNWIELTQTSPFMIIGNSGYGKPILNRTVKYESTLEEVLKAGFLSFDSTRVSANDVDFPLDVVVYYNNSFKMIEHRFEKKDMEIISTTWDNQLKQALDSVPEEWMNVVFDRKNVLLEHHHHHH | failed
15 | MTYKELATFLKVLSDSSRLEILDLLSCGELCACDLLAHFQFSQPTLSYHMKALVKTNLVTTRKIGNKHLYQLNHNIFESVINNLSKVHTSNQRCICHNLKTGEC | failed
16 | MTYKVLHVGAGGFGERWCDTFLPSNNSDGTIEVVGLVDIDARALEIGRKHLGLKAKQCFTSAAQAFKAVDADFCTIVIPPALHEGIVDLALERGMHILSEKPIAATMEASVRIADKVRVAGRKMAVTMSHRFDQDKSTLRALVSDEALGRVNTVSCRFAGDYRAYDSWGRFRHEMIHPMLIEGAVHHLDIMADLAGAPCTSIYARSWKPEWAEYKGETDVMVLMDFANGAHGVYEGSSAQATGLNDWTFEYVRVEAASGTAILDHREVEVFHRDPKRIYQKNRHGKGQQVSLLGGKKWKNSLLIEQFCHWLDGGPPMATNVEDNLQSVALIFSAIESARLGQPVKVQEFLQSFRKSASIETQ | failed
17 | MTYMYDHDHIPKHITATIWEHLQRENPNFFKEYNKRCELVRQIVTLNDLLAQQIDLMQRLSQLDVGTTAPVTKLQEPNDHHHDEVQTLEQWLETNGFANIEDTFLCLSDLVDAPVTEVQKPKDKDQSCDQWINGSNDLASIEETVSSLINPSPFAETPQSEPPGLRYDTDCACITATSNLVTWVYDPSGDNKSGVEISSERRFGANISLERRRPREAGFTEQRPPSVLDGGRITGPLSSEPTMTH | failed
18 | MTYQQAGRIAVIKRILGWVIFIPSVLSTLISVLKFMYEHSEKKPGIDAVMMDFAHVMIEMMRFNTPFLNFFWYNSPLPDFHHSLNIGFWIIFILVFVGMALQASGARMARQAKFLREGIEDQLILEQAKGADGLTREQLAERIVVPRHTILVQYFPLYVLPVIVIVIGYFFFSLLGFL | failed
19 | MVAACKTMLTQIYEVATPAEAEAISVIGVDHVGVLVGDGAFPRELPVQKALAVMKMVRAPSVVSALFLSADVALIERMARELDPPIVHLGASSELLTPDLVVALRKSLPKTKFMRSVPVTGPEAVGVAQAYDGVVDWILLDSHRTGDVQIGAQGVTHDWSISRTIVESVRTPVILAGGLGPDNVKEAIRSVRPAGVDSKTRTDREGTHSKDLRKVEAFYRAATSG | failed
20 | MVACRVRLGRHQGARAGRTVCPKHRLRARDAGSRECAALSAGCGRMGRMSEQSLPDGVRPQNADALPEYAERVLDMTELIPPGRVMTYGDVAEYLEEGGPRQVGRVMSLYGGGVPWWRVVRADGVLLAGHELEALDRYREEGTPLKEASRAAEGHLPRLDLKRARWDGEGRPQGHGGRAQGHT | failed
21 | MVAGRRKVVPGLVLLCLGALLARSLSVLIGINELLLAIALGAVLVNTVGIPERFRHGTATYNIWLAAGIVLLGSSLTVGMIIEVGATVLLLLVAAVTLTLVTVEVLARNVAGVTDRFGSLLAAGAGICGVSAVAAVGGAVRAKEMHIAYAAGVVLLVDAVTIVVYPIVGAVLDLPDVVFGVWAGVSMLSTGPVVAVGFAHSEVAGQWATITKLARNALIGVVALGYASYYARRGAGGSTSVRMLWENFPKFVLGFLVLVGLASLGAFSPAQQDMISTVVDWLFLLAFVGLGTQIRTAELRATGITPALIVFAAVLLVSVLSLAAALVVL | failed
22 | MVAIAQGLPHDLLAPAWQILILGDGSPTRHLQLLTGETTEVDVIDMSAIGHAGDRAPAQLQLIPGPRLRRQVWLRTASGQRLAYATSWWEAAHVDEYLQNRAMPIWTNLAQRKLELYRDIQAVYLGHSETLAAAFGEAGPFWGRHYLFWHDRRPITLIYEVFSPYLCRYLGPMGSTAYWANSALPFALEHHHHHH | failed
23 | MVAIDYVVIGAGYAGLMCAEALMDKGFKTLVFDMRESGGEIVVFSKLEEFRSKYEKYIEKIEEIRKDIPVDIGTVIKSKPVIINSGNGLKRYEARRVILATGATDTAPVKLNVLSKKIEGIYTLENALREISENNKIGEKVLIAAKDDVIVKLAESQLSDLGYDVEISELTNDIQVIGKERVEGVEISGVRYSCDTLVVYGGRNPFNPLKLRGTPVGNVVTCTYDYSKVEENVKNFLAKILEHHHHHH | failed
